According to US20210403593A1 (TIZONA THERAPEUTICS, published 2021):
Residue numbers refer to the chain shown, from its start. One block for each binder: values may come before it.

Columns and labels:
[1] = target: T1, Chimera #4 (Homo sapiens (Human), UniProt P49961 1-510); assay: FACS on CHO cells, 15 ug/ml; human M1-S274 + mouse GGV + human L278-V510
T1 construct: Expressed on CHO cells
T1 chain: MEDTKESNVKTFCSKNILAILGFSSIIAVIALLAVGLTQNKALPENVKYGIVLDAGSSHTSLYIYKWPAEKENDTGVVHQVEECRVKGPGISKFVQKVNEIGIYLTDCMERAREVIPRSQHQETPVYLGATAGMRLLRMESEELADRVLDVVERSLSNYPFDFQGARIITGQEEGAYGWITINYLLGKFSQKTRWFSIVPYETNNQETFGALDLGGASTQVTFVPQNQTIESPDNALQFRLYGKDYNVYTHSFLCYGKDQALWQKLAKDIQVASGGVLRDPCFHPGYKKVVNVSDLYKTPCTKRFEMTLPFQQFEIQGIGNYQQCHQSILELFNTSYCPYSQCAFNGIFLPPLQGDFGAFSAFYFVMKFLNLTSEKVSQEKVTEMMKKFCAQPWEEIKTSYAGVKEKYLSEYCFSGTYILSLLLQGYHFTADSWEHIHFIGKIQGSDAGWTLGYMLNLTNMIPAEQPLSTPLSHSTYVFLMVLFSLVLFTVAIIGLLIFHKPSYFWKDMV

[2] = target: T2, cynomolgus macaque (Macaca fascicularis) CD39 (Macaca fascicularis, UniProt P49961 7-510 (human entry)); assay: flow cytometry, 100 nM IgG, MFI on CHO-cCD39 / MFI on parental CHO;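 note: antibodies bound to the cells for 30 min in PBS, then bound IgG was revealed with a fluorescent goat anti-human IgG secondary antibody, 20 min on ice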
T2 construct: On engineered CHO cells and on primary cyno B cells and monocytes; also called cyno CD39; cCD39
T2 chain: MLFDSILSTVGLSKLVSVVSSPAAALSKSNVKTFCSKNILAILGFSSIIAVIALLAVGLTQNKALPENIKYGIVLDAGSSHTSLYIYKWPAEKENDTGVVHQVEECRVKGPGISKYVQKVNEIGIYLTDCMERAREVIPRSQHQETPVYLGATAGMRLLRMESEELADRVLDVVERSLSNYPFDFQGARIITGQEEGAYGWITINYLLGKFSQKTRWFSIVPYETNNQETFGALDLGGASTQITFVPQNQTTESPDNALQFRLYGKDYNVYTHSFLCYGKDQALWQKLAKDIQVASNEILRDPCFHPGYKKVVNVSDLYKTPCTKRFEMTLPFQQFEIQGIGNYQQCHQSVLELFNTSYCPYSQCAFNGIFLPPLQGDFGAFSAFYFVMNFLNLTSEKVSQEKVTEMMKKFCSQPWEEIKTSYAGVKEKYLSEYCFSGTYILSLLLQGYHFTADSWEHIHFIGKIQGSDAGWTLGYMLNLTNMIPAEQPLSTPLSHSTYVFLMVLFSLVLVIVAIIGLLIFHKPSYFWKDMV

[3] = target: T3, Chimera #13 (Homo sapiens (Human), UniProt P49961 1-510); assay: FACS on CHO cells; human CD39 with mouse D99 and T154
T3 construct: Expressed on CHO cells
T3 sequence: T1 chain with N99D, R154T, G275N, G276E, V277I

- binding result [1]: binds
- Cell Binding (FOB) [2]: 4660 fold over background
- binding result [3]: no binding (tested: 15 ug/ml)
B1: 31901 (antibody, human IgG4 S228P, kappa, V domains shown)
VH: QVQLVQSGAEVKKPGSSVKVSCKASGGTFSSLPISWVRQAPGQGLEWMGGIGFGTANYAQKFQGRVTITADESTSTAYMELSSLRSEDTAVYYCARGGAKYAGRYGMDVWGQGTTVTVSS
VL: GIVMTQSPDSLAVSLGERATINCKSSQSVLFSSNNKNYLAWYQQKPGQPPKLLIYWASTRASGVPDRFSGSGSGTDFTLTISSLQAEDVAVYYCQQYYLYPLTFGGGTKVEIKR

- binding result [1]: binds
- Cell Binding (FOB) [2]: 4940 fold over background
- binding result [3]: no binding (tested: 15 ug/ml)
B2: 31905 (antibody, human IgG4 S228P, kappa, V domains shown)
VH: B1 VH with S30P, L32N, P33A, G103R, R104T
VL: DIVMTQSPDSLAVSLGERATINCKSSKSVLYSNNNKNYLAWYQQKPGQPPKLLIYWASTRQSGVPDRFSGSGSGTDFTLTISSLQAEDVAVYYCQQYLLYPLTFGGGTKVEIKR
